Target: T1, epidermal growth factor receptor (EGFR) on EGFR-expressing cell lines (HeLa, HT-29, MRC-5, A549) (UniProt P00533 25-1210)
T1 construct: whole, on cells; EGFR expression in the cell lines was verified by Western blot; HEK293T served as the EGFR-negative line; also called EGF receptor
Assay: fluorescence microscopy of Alexa Fluor 488-labelled phage on HeLa cells

B1: M13KO7 helper phage (no display) (other)
chain: AETVESCLAKPHTENSFTNVWKDDKTLDRYANYEGCLWNATGVVVCTGDETQCYGTWVPIGLAIPENEGGGSEGGGSEGGGSEGGGTKPPEYGDTPIPGYTYINPLDGTYPPGTEQNPANPNPSLEESQPLNTFMFQNNRFRNRQGALTVYTGTVTQGTDPVKTYYQYTPVSSKAMYDAYWNGKFRDCAFHSGFNEDPFVCEYQGQSSDLPQPPVNAGGGSGGGSGGGSEGGGSEGGGSEGGGSEGGGSGGGSGSGDFDYEKMANANKGAMTENADENALQSDAKGKLDSVATDYGAAIDGFIGDVSGLANGNGATGDFAGSNSQMAQVGDGDNSPLMNNFRQYLPSLPQSVECRPFVFSAGKPYEFSIDCDKINLFRGVFAFLLYVATFMYVFSTFANILRNKES
notes: mature; Whole phage particle without a ligand, labelled with Alexa Fluor 488 in the localisation experiment; also called EGF- phage; non-displaying phage
binding result: no binding (tested: 5×10^7 virions/mL)

From patent US20250269056A1 (published 2025)
